# Test results reported in publication PMC5933747 (PLoS ONE, 2018).
# Legend:
# human NaV1.5 = human NaV1.5 (Homo sapiens, UniProt Q14524); test: PatchXpress (PX) automated electrophysiology, human NaV1.5; type: cell-based; conditions: PX platform; at least ten cells, two to three data points per concentration
# human NaV1.4 = human NaV1.4 (Homo sapiens, UniProt P35499); test: PatchXpress (PX) automated electrophysiology, human NaV1.4; type: cell-based; conditions: PX platform; at least ten cells, two to three data points per concentration
# Procedure: Human NaV (hNaV) stably transfected cell lines in HEK293 or CHO backgrounds and cell culture methods were as previously described. hNaV1.1-hNaV1.7 cells were obtained from Eurofins Pharma Discovery Services (St. Charles, MO), and hNaV1.8 cells were generated in house. Whole cell patch clamp, PatchXpress, and IWQ electrophysiology voltage protocols as well as DRG neuron isolation were carried out as previously described. NaV1.7-NaV1.5 chimeras were generated and evaluated in BacMam transduced U2-OS cells on the IWQ platform as previously described.
# human NaV1.7 [1] = biological target: T1, human NaV1.7 (Homo sapiens, UniProt Q15858); test: 125I-ProTx-II radioligand binding to live HEK293 cells stably expressing human NaV1.7; conditions: 0.5 nM 125I-ProTx-II, 3 h, increasing concentrations of cold peptide
# human NaV1.7 [2] = biological target: T1, human NaV1.7
# human NaV1.7 [3] = biological target: T1, human NaV1.7; remark: listed apart in the source
# human NaV1.7 [4] = biological target: T1, human NaV1.7; remark: listed apart in the source
# wild-type NaV1.5 = wild-type NaV1.5 (Homo sapiens, UniProt Q14524)
# human NaV1.7 [5] = biological target: T1, human NaV1.7; remark: listed apart in the source
# T1 sequence (Q15858 whole entry): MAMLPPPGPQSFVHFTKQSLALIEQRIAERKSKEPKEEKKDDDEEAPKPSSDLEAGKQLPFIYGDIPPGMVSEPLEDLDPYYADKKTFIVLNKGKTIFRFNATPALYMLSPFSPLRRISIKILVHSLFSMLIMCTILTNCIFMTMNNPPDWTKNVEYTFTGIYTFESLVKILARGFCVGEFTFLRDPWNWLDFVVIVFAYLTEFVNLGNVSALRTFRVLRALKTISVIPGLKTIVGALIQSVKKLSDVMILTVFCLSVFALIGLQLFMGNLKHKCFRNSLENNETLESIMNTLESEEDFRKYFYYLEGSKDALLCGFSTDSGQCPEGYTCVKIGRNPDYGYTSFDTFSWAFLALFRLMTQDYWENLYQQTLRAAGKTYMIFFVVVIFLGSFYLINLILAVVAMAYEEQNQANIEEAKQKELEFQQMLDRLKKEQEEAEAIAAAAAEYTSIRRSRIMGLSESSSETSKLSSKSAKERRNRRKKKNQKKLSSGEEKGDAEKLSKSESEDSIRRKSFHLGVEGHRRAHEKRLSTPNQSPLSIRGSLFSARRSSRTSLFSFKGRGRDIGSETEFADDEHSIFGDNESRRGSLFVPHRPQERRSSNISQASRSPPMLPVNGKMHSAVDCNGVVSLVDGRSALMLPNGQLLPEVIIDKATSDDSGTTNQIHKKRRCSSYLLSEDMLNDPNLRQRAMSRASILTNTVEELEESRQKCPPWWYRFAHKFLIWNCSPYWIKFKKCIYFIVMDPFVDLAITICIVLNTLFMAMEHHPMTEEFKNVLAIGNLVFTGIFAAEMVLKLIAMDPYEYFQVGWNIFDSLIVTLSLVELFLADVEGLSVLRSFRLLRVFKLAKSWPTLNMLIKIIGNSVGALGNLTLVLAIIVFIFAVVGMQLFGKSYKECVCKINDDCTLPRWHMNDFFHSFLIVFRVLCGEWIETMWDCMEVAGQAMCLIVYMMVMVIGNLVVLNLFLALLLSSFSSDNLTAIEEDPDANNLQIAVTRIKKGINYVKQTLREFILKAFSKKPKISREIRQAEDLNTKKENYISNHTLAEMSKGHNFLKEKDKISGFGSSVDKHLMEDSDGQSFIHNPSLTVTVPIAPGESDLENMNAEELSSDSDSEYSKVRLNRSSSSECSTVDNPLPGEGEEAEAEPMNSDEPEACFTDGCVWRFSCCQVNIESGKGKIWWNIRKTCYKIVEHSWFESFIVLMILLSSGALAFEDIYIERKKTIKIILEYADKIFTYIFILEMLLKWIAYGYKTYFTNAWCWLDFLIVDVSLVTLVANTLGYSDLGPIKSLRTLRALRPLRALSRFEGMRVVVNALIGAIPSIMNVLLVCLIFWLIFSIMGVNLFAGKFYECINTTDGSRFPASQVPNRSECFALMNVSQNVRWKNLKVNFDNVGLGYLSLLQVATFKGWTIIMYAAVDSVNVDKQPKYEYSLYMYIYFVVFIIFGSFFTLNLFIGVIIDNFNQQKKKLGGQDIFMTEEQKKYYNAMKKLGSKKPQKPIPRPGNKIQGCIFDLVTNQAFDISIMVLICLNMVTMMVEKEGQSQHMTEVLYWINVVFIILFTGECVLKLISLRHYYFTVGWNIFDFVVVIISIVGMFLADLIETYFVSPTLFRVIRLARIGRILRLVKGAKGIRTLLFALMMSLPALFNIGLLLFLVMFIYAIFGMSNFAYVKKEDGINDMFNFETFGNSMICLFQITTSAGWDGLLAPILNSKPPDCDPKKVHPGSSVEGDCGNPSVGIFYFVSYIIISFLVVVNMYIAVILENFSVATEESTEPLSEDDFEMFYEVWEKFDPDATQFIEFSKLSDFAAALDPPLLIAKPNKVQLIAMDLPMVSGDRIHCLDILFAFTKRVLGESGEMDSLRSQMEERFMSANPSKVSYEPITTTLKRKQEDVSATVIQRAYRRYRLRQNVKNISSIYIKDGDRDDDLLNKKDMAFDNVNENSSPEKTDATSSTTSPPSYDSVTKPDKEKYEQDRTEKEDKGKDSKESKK
# Sequence of human NaV1.4 (P35499 whole entry): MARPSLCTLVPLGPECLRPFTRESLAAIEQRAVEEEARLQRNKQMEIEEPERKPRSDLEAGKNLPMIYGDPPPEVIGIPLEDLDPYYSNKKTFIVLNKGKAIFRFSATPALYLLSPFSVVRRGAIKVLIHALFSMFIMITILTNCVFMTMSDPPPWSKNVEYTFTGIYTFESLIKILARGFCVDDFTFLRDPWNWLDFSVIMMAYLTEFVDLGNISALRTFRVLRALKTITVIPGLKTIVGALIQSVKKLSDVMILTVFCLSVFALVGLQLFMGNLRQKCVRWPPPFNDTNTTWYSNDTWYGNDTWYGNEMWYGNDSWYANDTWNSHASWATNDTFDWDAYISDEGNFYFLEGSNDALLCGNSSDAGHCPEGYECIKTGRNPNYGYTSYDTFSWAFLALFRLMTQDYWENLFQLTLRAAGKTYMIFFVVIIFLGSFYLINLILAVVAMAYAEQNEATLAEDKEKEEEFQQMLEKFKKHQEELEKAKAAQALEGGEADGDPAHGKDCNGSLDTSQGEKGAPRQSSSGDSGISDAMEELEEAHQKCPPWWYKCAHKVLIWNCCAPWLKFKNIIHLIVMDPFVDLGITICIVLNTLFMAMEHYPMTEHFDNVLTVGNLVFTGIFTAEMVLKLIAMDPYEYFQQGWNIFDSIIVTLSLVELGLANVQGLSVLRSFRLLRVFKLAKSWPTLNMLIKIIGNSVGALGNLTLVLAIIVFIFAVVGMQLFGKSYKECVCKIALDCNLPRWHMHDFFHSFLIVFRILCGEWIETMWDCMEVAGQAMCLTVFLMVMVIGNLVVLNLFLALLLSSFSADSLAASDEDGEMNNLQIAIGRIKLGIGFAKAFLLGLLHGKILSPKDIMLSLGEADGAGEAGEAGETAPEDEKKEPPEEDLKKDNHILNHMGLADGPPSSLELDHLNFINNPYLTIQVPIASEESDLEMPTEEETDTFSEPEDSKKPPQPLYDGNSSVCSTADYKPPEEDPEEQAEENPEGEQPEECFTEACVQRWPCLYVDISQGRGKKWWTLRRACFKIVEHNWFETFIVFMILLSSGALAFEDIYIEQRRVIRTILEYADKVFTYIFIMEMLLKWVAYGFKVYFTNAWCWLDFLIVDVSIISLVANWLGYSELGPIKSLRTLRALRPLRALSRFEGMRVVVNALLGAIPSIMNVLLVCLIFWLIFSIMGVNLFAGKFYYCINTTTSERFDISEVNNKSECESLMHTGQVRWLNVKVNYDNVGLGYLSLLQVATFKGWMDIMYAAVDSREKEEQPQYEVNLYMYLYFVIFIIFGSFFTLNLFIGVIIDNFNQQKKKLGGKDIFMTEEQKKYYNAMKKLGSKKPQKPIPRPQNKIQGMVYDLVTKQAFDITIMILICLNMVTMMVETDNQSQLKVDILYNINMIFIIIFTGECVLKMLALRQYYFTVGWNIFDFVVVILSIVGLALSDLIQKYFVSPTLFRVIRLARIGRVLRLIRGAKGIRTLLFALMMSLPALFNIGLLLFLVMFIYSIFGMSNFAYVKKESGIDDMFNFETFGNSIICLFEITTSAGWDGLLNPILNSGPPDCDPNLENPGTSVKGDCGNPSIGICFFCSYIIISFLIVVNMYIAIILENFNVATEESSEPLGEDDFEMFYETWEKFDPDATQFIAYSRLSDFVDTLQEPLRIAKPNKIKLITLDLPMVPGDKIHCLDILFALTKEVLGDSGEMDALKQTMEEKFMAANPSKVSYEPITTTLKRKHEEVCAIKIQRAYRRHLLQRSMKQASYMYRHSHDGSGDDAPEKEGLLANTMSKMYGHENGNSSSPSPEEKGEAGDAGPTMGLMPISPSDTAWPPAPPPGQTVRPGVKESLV
# Sequence of JzTx-V(1–29) (Q2PAY4 54-83): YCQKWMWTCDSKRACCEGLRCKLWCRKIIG
compound,measurement,setting,value
"C#CC[C@@H]1NC(=O)[C@H](CCCNC(=N)N)NC(=O)[C@H](CCCCN)NC(=O)[C@H](CO)NC(=O)[C@H](CC(=O)O)NC(=O)[C@@H]2CSSC[C@@H]3NC(=O)[C@H](CCCNC(=N)N)NC(=O)[C@H](CC(C)C)NC(=O)CNC(=O)[C@H](CCC(=O)O)NC(=O)[C@H](CSSC[C@H](NC(=O)[C@@H](N)Cc4ccc(O)cc4)C(=O)N[C@@H](CCC(N)=O)C(=O)N[C@@H](CCCCN)C(=O)N[C@@H](Cc4c[nH]c5ccccc45)C(=O)N[C@@H](CCCC)C(=O)N[C@@H](Cc4c[nH]c5ccccc45)C(=O)N[C@@H]([C@@H](C)O)C(=O)N2)NC(=O)[C@H](CSSC[C@@H](C(=O)N[C@@H](CCCNC(=N)N)C(=O)N[C@@H](CCCCN)C(=O)N[C@@H](CCC(=O)O)C(=O)N[C@H](C(N)=O)[C@@H](C)CC)NC(=O)[C@H](Cc2c[nH]c4ccccc24)NC(=O)[C@H](CC(C)C)NC(=O)[C@H](CCCCN)NC3=O)NC1=O [Peptide 6, [Nle6;Pra14;Glu28]JzTx-V(1–29)]",IC50,human NaV1.5,3.5 µM
same,IC50,human NaV1.4,110 nM
"C#CC[C@@H]1NC(=O)[C@@H]2CSSC[C@H](NC(=O)[C@@H](N)Cc3ccc(O)cc3)C(=O)N[C@@H](CCC(N)=O)C(=O)N[C@@H](CCCCN)C(=O)N[C@@H](Cc3c[nH]c4ccccc34)C(=O)N[C@@H](CCCC)C(=O)N[C@@H](Cc3c[nH]c4ccccc34)C(=O)N[C@@H]([C@@H](C)O)C(=O)N[C@H]3CSSC[C@H](NC(=O)[C@H](CCCNC(=N)N)NC(=O)[C@H](CC(C)C)NC(=O)CNC1=O)C(=O)N[C@@H](CCCCN)C(=O)N[C@@H](CC(C)C)C(=O)N[C@@H](Cc1c[nH]c4ccccc14)C(=O)N[C@H](C(=O)N[C@@H](CCCNC(=N)N)C(=O)N[C@@H](CCCCN)C(=O)N[C@@H](CCC(=O)O)C(=O)N[C@H](C(N)=O)[C@@H](C)CC)CSSC[C@H](NC(=O)[C@H](C)NC(=O)[C@H](CCCNC(=N)N)NC(=O)[C@H](CCCCN)NC(=O)[C@H](CO)NC(=O)[C@H](CC(=O)O)NC3=O)C(=O)N2 [Peptide 7, [Nle6;Pra17;Glu28]JzTx-V(1–29)]",IC50,human NaV1.5,3.1 µM
same,IC50,human NaV1.4,130 nM
HwTx-IV (ECLEIFKACNPSNDQCCKSSKLVCSRKTRWCKYQIGK),competition for 125I-ProTx-II binding,human NaV1.7 [1],competed
JzTx-V(1–29) (from UniProt Q2PAY4 54-83) (peptide),"NaV1.7 IC50 (nM), block of human NaV1.7 current in HEK293 cells, PatchXpress (PX) platform",human NaV1.7 [2],0.6 nM
same,"potency (IC50) of inhibition of NaV1.7 by manual patch clamp, voltage protocol with 20% of channels inactivated",human NaV1.7 [3],0.15 nM
Pra-[Nle6;Glu28]JzTx-V(1–29) (peptide),"IC50 of block of human NaV1.7, manual patch clamp, voltage protocol with 20% of NaV channels inactivated",human NaV1.7 [4],0.58 nM
same,"NaV1.7 IC50 (nM), block of human NaV1.7 current, PatchXpress (PX) platform",human NaV1.7 [2],0.5 nM
same,"IC50 of block of wild-type NaV1.5, IWQ platform (chimera panel)",wild-type NaV1.5,> 3 µM
same,"IC50 of block of wild-type NaV1.7, IWQ platform (chimera panel)",human NaV1.7 [5],0.05 µM
